The values that follow come from patent US20200182882A1.

Test [1] deals with T1, CD20 on a CD20 expressing target cell line (Wil2-S) (UniProt P11836).
T1 sequence (looked up): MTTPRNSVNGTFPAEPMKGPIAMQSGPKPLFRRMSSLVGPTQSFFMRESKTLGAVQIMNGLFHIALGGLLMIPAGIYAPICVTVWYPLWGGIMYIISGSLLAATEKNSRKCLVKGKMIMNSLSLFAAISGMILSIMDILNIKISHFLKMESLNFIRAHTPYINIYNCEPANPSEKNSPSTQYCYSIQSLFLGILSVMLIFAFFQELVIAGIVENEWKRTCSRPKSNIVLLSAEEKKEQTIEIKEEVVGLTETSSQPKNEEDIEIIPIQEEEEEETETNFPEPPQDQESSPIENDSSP
The test is described as follows: cell-based or functional assay.

For test [2], the target named is CD3 (TCR complex subunit) on T cells (Jurkat reporter cells; human PBMC T cells) (human) (UniProt P07766). The test is described as follows: cell-based or functional assay.
UniProt P07766, sequence (P07766 23-207, one chain of several): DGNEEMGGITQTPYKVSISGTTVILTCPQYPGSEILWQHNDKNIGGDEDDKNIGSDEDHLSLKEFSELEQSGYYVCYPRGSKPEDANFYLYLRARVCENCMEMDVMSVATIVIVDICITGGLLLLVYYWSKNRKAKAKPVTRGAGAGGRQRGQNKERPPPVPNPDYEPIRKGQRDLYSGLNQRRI

B1: αCD20/αCD3 TDB (bispecific antibody, from a related filing, V domains shown)
VH 1: EVQLVESGGGLVQPGGSLRLSCAASGYTFTSYNMHWVRQAPGKGLEWVGAIYPGNGDTSYNQKFKGRFTISVDKSKNTLYLQMNSLRAEDTAVYYCARVVYYSNSYWYFDVWGQGTLVTVSS
VL 1: DIQMTQSPSSLSASVGDRVTITCRASSSVSYMHWYQQKPGKAPKPLIYAPSNLASGVPSRFSGSGSGTDFTLTISSLQPEDFATYYCQQWSFNPPTFGQGTKVEIKR
VH 2: EVQLVQSGAEVKKPGASVKVSCKASGYTFTNYYIHWVRQAPGQGLEWIGWIYPGDGNTKYNEKFKGRATLTADTSTSTAYLELSSLRSEDTAVYYCARDSYSNYYFDYWGQGTLVTVSS
VL 2: DIVMTQSPDSLAVSLGERATINCKSSQSLLNSRTRKNYLAWYQQKPGQPPKLLIYWASTRESGVPDRFSGSGSGTDFTLTISSLQAEDVAVYYCTQSFILRTFGQGTKVEIK
With B1, in test [1], the EC50 of T cell activation (CD69+/CD25+), Human PBMC Donor 1, in presence of target cells was 5.5 ng/mL; the EC50 of T cell activation (CD69+/CD25+), Human PBMC Donor 2, in presence of target cells turned out to be 4.4 ng/mL; the EC50 of luciferase reporter activity, Jurkat/NFκBLuc, in presence of target cells amounted to 1.3 ng/mL. Also, in test [2], the EC50 of T cell activation (CD69+/CD25+), Human PBMC Donor 1, in presence of target cells was found to be 5.5 ng/mL; the EC50 of T cell activation (CD69+/CD25+), Human PBMC Donor 2, in presence of target cells came to 4.4 ng/mL; the EC50 of luciferase reporter activity, Jurkat/NFκBLuc, in presence of target cells amounted to 1.3 ng/mL; the luciferase activity of Jurkat/NFκBLuciferase clone 2 in the presence of a CD20 expressing target cell line, against anti-CD3 homodimer was determined as 1000 fold.
